From PMC3279196 (Journal of Molecular Biology, 2011)
Where two headings read alike, the source gives them in different places.

What was measured:
[1] = target: T1, CheW from Thermotoga maritima (T. maritima, UniProt Q56311 1-151); assay: NMR titration
T1 sequence (looked up): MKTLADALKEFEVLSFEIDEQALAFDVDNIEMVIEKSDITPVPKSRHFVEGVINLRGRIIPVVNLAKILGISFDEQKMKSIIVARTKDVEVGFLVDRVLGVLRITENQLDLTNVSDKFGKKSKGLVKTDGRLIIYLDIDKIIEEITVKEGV

[2] = target: T1, CheW from Thermotoga maritima; assay: NMR titration; remark: listed apart in the source
[3] = target: the molecule itself; assay: static light scattering

B1: TM0014(90-206) with N-terminal tyrosine and His5 tag (domain or fragment, T. maritima, UniProt Q7DFA3 90-206, looked up)
chain: KSGTNVDQIVERVKEASSQIGETLENIRSIEKLIQNIMRIARETNILALNATIEAARAGEAGKGFMIVANEVQNLSNETNEVTKQIVEKAREILESSQRSLENLEFMANLFETVGKT
[1]
  Kd: ~1.2 mM
[2]
  Kd: ~300 µM
[3]
  stoichiometry N: 2
